Measurements taken from US20240382610A1 (TALLAC THERAPEUTICS, published 2024).

T1: Human nectin-4 ECD-6His (TNT-175) (human, UniProt Q96NY8 32-349)
T1 construct: the entry holds the extracellular domain with the C-terminal 6His tag
T1 sequence: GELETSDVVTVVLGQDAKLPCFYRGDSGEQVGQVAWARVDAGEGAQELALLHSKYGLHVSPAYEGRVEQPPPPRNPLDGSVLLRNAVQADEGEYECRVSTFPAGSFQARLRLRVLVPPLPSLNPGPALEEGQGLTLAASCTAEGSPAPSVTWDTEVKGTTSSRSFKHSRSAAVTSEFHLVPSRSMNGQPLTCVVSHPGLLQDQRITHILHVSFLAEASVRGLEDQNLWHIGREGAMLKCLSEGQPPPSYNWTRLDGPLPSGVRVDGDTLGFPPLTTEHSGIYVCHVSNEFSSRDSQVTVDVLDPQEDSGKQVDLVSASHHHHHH

T2: human nectin-4 on cells (human, UniProt Q96NY8 32-510)
T2 construct: whole, on cells; also called PVRL4
T2 sequence (looked up): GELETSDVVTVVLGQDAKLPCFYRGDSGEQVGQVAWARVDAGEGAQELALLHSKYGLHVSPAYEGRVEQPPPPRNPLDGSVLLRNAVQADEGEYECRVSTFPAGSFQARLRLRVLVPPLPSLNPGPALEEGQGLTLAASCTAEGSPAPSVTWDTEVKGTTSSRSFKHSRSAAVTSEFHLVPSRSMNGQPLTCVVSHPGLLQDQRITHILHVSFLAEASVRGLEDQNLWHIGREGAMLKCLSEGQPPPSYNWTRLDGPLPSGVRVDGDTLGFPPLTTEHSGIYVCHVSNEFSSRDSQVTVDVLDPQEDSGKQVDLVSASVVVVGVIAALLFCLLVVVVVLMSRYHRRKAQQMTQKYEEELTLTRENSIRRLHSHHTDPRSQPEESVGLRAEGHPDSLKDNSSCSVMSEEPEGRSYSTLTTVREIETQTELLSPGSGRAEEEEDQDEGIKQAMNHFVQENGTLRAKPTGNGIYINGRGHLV


Columns and labels:
[1] = target: T1, Human nectin-4 ECD-6His (TNT-175); test: competition ELISA; nectin-4 ECD premixed with TNT203, captured by the coat antibody; % of signal without premix antibody
Procedure, shortened: (§1)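 Goat anti-mouse IgG was coated at 1 mg/mL in PBS overnight at 4° C. Premixes were applied for an hour, then rabbit anti-6×His HRP (1:4,000) for an hour at room temperature, then ABTS for 20 minutes. O.D. values, background-corrected, were reported relative to nectin-4 alone at its lowest dilution.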

[2] = target: T1, Human nectin-4 ECD-6His (TNT-175); test: competition ELISA; nectin-4 ECD premixed with TNT210, captured by the coat antibody; % of signal without premix antibody
Procedure, shortened: as §1

[3] = target: T1, Human nectin-4 ECD-6His (TNT-175); test: competition ELISA; nectin-4 ECD premixed with TNT209, captured by the coat antibody; % of signal without premix antibody
Procedure, shortened: as §1

[4] = target: T1, Human nectin-4 ECD-6His (TNT-175); test: competition ELISA; nectin-4 ECD premixed with TNT206, captured by the coat antibody; % of signal without premix antibody
Procedure, shortened: as §1

human nectin-4 on cells = target: T2, human nectin-4 on cells; test: flow cytometry MFI, MNK74 (nectin-4 positive) over AGS (negative)
[5] = target: T1, Human nectin-4 ECD-6His (TNT-175); test: SPR ProteOn, mAb on protein A
Protocol: Initial testing of binding of nectin-4 antibodies to nectin-4. […] Biotinylated protein A (15 μg/mL) was immobilized to the surface of an NLC chip. 30 nM of purified mAb supernatant was diluted in PBS-T and captured over the protein A surface. Serial dilutions of human nectin-4 were injected over the mAb-coated chips, and binding kinetics were determined. Chips were regenerated using 4:1 v/v of IgG elution butter/4M NaCl.

[6] = target: T1, Human nectin-4 ECD-6His (TNT-175); test: competition ELISA; nectin-4 ECD premixed with TNT212, captured by the coat antibody; % of signal without premix antibody
Procedure, shortened: as §1

[7] = target: T1, Human nectin-4 ECD-6His (TNT-175); test: competition ELISA; nectin-4 ECD premixed with TNT205, captured by the coat antibody; % of signal without premix antibody
Procedure, shortened: as §1

[8] = target: T1, Human nectin-4 ECD-6His (TNT-175); test: competition ELISA; nectin-4 ECD premixed with TNT204, captured by the coat antibody; % of signal without premix antibody
Procedure, shortened: as §1

[9] = target: T1, Human nectin-4 ECD-6His (TNT-175); test: competition ELISA; nectin-4 ECD premixed with TNT211, captured by the coat antibody; % of signal without premix antibody
Procedure, shortened: as §1

[10] = target: T1, Human nectin-4 ECD-6His (TNT-175); test: competition ELISA; nectin-4 ECD premixed with TNT202, captured by the coat antibody; % of signal without premix antibody
Procedure, shortened: as §1

[11] = target: T1, Human nectin-4 ECD-6His (TNT-175); test: competition ELISA; nectin-4 ECD premixed with TNT208, captured by the coat antibody; % of signal without premix antibody
Procedure, shortened: as §1

[12] = target: T1, Human nectin-4 ECD-6His (TNT-175); test: competition ELISA; nectin-4 ECD premixed with TNT207, captured by the coat antibody; % of signal without premix antibody
Procedure, shortened: as §1

[13] = target: T1, Human nectin-4 ECD-6His (TNT-175); test: competition ELISA; nectin-4 ECD premixed with TNT201, captured by the coat antibody; % of signal without premix antibody
Procedure, shortened: as §1

| % of Positive [1] | % of Positive [2] | % of Positive [3] | % of Positive [4] | Fold-change of binding to MNK74 compared to control AGS (human nectin-4 on cells) | Kd [5] | koff [5] | kon [5] | % of Positive [6] | % of Positive [7] | % of Positive [8] | % of Positive [9] | % of Positive [10] | % of Positive [11] | % of Positive [12] | % of Positive [13] | Binder |
| --- | --- | --- | --- | --- | --- | --- | --- | --- | --- | --- | --- | --- | --- | --- | --- | --- |
| 29.3% | 2.7% | 26.7% | 10.5% | 5 fold | 5.09 nM | 0.00423 s⁻¹ | 832000 M⁻¹ s⁻¹ | 3.1% | 44.4% | 3.9% | 27% | 4.3% | 4.3% | 2.4% | 1% | TNT-189 (antibody, mouse IgG2a, kappa) heavy: EVQLVQSGAEVKKPGSSVKVSCKASGGTFSSYAISWVRQAPGQGLEWMGGIIPIFGTANYAQKFQGRVTITADESTSTAYMELSSLRSEDTAVYYCARGYSSSWYEPYYFDYWGQGTLVTVSSAKTTAPSVYPLAPVCGDTTGSSVTLGCLVKGYFPEPVTLTWNSGSLSSGVHTFPAVLQSDLYTLSSSVTVTSSTWPSQSITCNVAHPASSTKVDKKIEPRGPTIKPCPPCKCPAPNLLGGPSVFIFPPKIKDVLMISLSPIVTCVVVDVSEDDPDVQISWFVNNVEVHTAQTQTHREDYNSTLRVVSALPIQHQDWMSGKEFKCKVNNKDLPAPIERTISKPKGSVRAPQVYVLPPPEEEMTKKQVTLTCMVTDFMPEDIYVEWTNNGKTELNYKNTEPVLDSDGSYFMYSKLRVEKKNWVERNSYSCSVVHEGLHNHHTTKSFSRTPGRPQGFGPP light: DIQLTQSPSSLSASVGDRVTITCRASQGISNYLAWYQQKPGKAPKLLIYAASTLQSGVPSRFSGSGSGTDFTLTISSLQPEDFATYYCQQSYSTPYTFGQGTKLEIKRADAAPTVSIFPPSSEQLTSGGASVVCFLNNFYPKDINVKWKIDGSERQNGVLNSWTDQDSKDSTYSMSSTLTLTKDEYERHNSYTCEATHKTSTSPIVKSFNRNEC |
| 40% | 8% | 43.7% | 20% | 4.3 fold | 7.03 nM | 0.00153 s⁻¹ | 217000 M⁻¹ s⁻¹ | 10.1% | 52.5% | 9.2% | 35.4% | 12.8% | 12.7% | 7.5% | 2.7% | TNT-188 (antibody, mouse IgG2a, kappa) heavy: EVQLVQSGAEVKKPGSSVKVSCKASGYTFTGYYMHWVRQAPGQGLEWMGWINPNSGGTNYAQKFQGRVTMTRDTSISTAYMELRSLRSDDTAVYYCARGSALHFFGVFDYWGQGTLVTVSSAKTTAPSVYPLAPVCGDTTGSSVTLGCLVKGYFPEPVTLTWNSGSLSSGVHTFPAVLQSDLYTLSSSVTVTSSTWPSQSITCNVAHPASSTKVDKKIEPRGPTIKPCPPCKCPAPNLLGGPSVFIFPPKIKDVLMISLSPIVTCVVVDVSEDDPDVQISWFVNNVEVHTAQTQTHREDYNSTLRVVSALPIQHQDWMSGKEFKCKVNNKDLPAPIERTISKPKGSVRAPQVYVLPPPEEEMTKKQVTLTCMVTDFMPEDIYVEWTNNGKTELNYKNTEPVLDSDGSYFMYSKLRVEKKNWVERNSYSCSVVHEGLHNHHTTKSFSRTPGRPQGFGPP light: not shown |
| 29.8% | 0.8% | 26% | 5.4% | 5.9 fold | 20.2 nM | 0.00138 s⁻¹ | 68400 M⁻¹ s⁻¹ | 1.9% | 56.9% | 2.2% | 19.5% | 2.5% | 2.1% | 1% | 0.9% | TNT-198 (antibody, mouse IgG2a, kappa) heavy: EVQLVQSGAEVKKPGSSVKVSCKASGGTFSSYAISWVRQAPGQGLEWMGWINPNSGGTNYAQKFQGRVTMTRDTSTSTAYMELSSLRSEDTAVYYCATGYYGDLYYFDYWGQGTLVTVSSAKTTAPSVYPLAPVCGDTTGSSVTLGCLVKGYFPEPVTLTWNSGSLSSGVHTFPAVLQSDLYTLSSSVTVTSSTWPSQSITCNVAHPASSTKVDKKIEPRGPTIKPCPPCKCPAPNLLGGPSVFIFPPKIKDVLMISLSPIVTCVVVDVSEDDPDVQISWFVNNVEVHTAQTQTHREDYNSTLRVVSALPIQHQDWMSGKEFKCKVNNKDLPAPIERTISKPKGSVRAPQVYVLPPPEEEMTKKQVTLTCMVTDFMPEDIYVEWTNNGKTELNYKNTEPVLDSDGSYFMYSKLRVEKKNWVERNSYSCSVVHEGLHNHHTTKSFSRTPGRPQGFGPP light: DIVMTQSPSSLSASVGDRVTITCRASQGISNYLAWYQQKPGKVPKLLIYAASTLQSGVPSRFSGSGSGTEFTLAISSLQPEDLATYYCQQLNSHPITFGQGTRLEIKRADAAPTVSIFPPSSEQLTSGGASVVCFLNNFYPKDINVKWKIDGSERQNGVLNSWTDQDSKDSTYSMSSTLTLTKDEYERHNSYTCEATHKTSTSPIVKSFNRNEC |
